T1: Human PAR-2 on cells (human, UniProt P55085 26-397)
T1 sequence: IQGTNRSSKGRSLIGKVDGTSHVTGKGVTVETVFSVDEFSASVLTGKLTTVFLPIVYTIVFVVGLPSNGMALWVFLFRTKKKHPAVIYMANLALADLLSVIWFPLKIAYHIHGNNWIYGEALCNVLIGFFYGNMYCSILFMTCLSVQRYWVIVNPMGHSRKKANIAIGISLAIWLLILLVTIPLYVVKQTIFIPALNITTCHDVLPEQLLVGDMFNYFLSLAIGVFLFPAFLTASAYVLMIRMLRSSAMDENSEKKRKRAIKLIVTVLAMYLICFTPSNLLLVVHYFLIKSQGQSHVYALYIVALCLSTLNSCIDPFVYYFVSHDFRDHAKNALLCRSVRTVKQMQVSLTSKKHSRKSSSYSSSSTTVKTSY

T2: FLAG-tagged PAR-2 over-expressed on HEK transfectants (Homo sapiens (Human), UniProt P55085 37-397)
T2 sequence: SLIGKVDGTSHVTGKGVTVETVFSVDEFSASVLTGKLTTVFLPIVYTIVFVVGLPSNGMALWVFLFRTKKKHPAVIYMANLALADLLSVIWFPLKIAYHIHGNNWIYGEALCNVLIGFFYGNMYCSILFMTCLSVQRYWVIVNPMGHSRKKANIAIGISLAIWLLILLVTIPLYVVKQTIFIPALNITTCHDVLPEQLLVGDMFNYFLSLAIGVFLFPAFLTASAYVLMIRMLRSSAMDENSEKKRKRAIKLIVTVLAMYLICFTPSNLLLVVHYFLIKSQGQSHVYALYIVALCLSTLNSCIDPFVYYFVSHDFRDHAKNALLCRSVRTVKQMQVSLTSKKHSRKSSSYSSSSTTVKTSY

T3: PAR-2 peptide (SEQ ID NO:42) coupled to Transferrin as carrier (coupled to Transferrin as carrier)
T3 construct: Transferrin carrier not further described
T3 peptide: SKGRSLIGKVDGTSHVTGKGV

T4: PAR-4 peptide (SEQ ID NO:44)
T4 peptide: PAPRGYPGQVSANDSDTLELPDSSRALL

T5: Murine PAR-2 peptide (murine)
T5 construct: also called mouse PAR-2 peptide
T5 peptide: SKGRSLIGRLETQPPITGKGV

T6: Cynomolgus PAR-2 peptide (cynomolgus)
T6 peptide: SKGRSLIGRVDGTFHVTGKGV

T7: Human PAR-2 peptide (SEQ ID NO:1, Residues 33-54) (human)
T7 peptide: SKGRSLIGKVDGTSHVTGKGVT

T8: Rat PAR-2 peptide (rat)
T8 peptide: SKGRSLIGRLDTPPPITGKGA

B1: Ab4997 IgG4_Pro (antibody, V domains shown)
VH: QVQLVESGGGLVQPGGSLRLSCAASGFTFSSYAMNWVRQAPGKGLEWVSAISYNGKLKGYADSVKGRFTISRDNSKNTLYLQMNSLRAEDTAVYYCARIQNDPMDVWGQGTLVTVSS
VL: DIELTQPPSVSVAPGQTARISCSGDNLGKKYVQWYQQKPGQAPVLVIYDDSNRPSGIPERFSGSNSGNTATLTISGTQAEDEADYYCSSWDVGSDGWVFGGGTKLTVLG
notes: IgG4_Pro (human IgG4 constant regions, Ser241Pro hinge), lambda; also called IgG4p Ab4997
B2: Ab5150 IgG4_Pro (cross-cloned: light chain of Ab4999 with heavy chain of Ab5003) (antibody, V domains shown)
VH: B1 VH with N54K, K56H, K58T
VL: DIELTQPPSVSVAPGQTARISCSGDNLGKKYVQWYQQKPGQAPVLVIYDDSNRPSGIPERFSGSNSGNTATLTISGTQAEDEADYYCQTWDYSSIRDETNVFGGGTKLTVLG
notes: IgG4_Pro format
B3: Ab5007 IgG4_Pro (antibody, V domains shown)
VH: B1 VH with Y53F, N54S, K56H, K58T
VL: B1 VL
notes: IgG4_Pro (human IgG4 constant regions, Ser241Pro hinge), lambda; also called IgG4p Ab5007
B4: Ab4994 IgG4_Pro (antibody, V domains shown)
VH: B1 VH with N54S, K56H, K58T
VL: B1 VL
notes: IgG4_Pro: variable regions fused to human IgG4 constant regions with Ser241Pro in the hinge, lambda light chain; also called IgG4p Ab4994
B5: Ab5005 IgG4_Pro (antibody, V domains shown)
VH: B1 VH with A50T, N54S, G55S, K56S, L57A, K58T, G59S
VL: DIELTQPPSVSVAPGQTARISCSGDNLGKKYVQWYQQKPGQAPVLVIYDDSNRPSGIPERFSGSNSGNTATLTISGTQAEDEADYYCQSWALVGSSESNVFGGGTKLTVLG
notes: IgG4_Pro (human IgG4 constant regions, Ser241Pro hinge), lambda; also called IgG4p Ab5005
B6: Ab5149 IgG4_Pro (cross-cloned: light chain of Ab4999 with heavy chain of Ab4997) (antibody, V domains shown)
VH: B1 VH
VL: B2 VL
notes: IgG4_Pro format
B7: Ab5003 IgG4_Pro (antibody, V domains shown)
VH: B1 VH with N54K, K56H, K58T
VL: B1 VL
notes: IgG4_Pro (human IgG4 constant regions, Ser241Pro hinge), lambda; also called IgG4p Ab5003
B8: Ab4996 IgG4_Pro (antibody, V domains shown)
VH: QVQLVESGGGLVQPGGSLRLSCAASGFTFSNHAMHWVRQAPGKGLEWVSAISHPGKFTYYADSVKGRFTISRDNSKNTLYLQMNSLRAEDTAVYYCARHGDGMDYFDFWGQGTLVTVSS
VL: DIELTQPPSVSVAPGQTARISCSGDNIGTKYVYWYQQKPGQAPVLVIYDDNNRPSGIPERFSGSNSGNTATLTISGTQAEDEADYYCQSYDSQTMVFGGGTKLTVLG
notes: IgG4_Pro (human IgG4 constant regions, Ser241Pro hinge), lambda; also called IgG4p Ab4996
B9: Antibody Par-D (antibody, V domains shown)
VH: B8 VH with Q3E
VL: B8 VL
notes: Codon-optimized version of Ab4996
B10: Antibody Par-C (antibody, V domains shown)
VH: B1 VH with Q3E, Y53F, N54S, K56H, K58T
VL: B2 VL
notes: Codon-optimized version of Ab5151
B11: Ab4994 Fab (Fab, V domains shown)
VH: B1 VH with Q3E, N54S, K56H, K58T
VL: B1 VL
notes: Fab
B12: Ab4997 Fab (Fab, V domains shown)
VH: B1 VH with Q3E
VL: B1 VL
notes: Fab
B13: Ab4999 Fab (Fab, V domains shown)
VH: B1 VH with Q3E, A50T, N54S, G55S, K56S, L57A, K58T, G59S
VL: B2 VL
notes: Fab
B14: Ab5006 Fab (Fab, V domains shown)
VH: B1 VH with Q3E, S49G, Y53F, N54D, K56M, K58T
VL: B1 VL
notes: Fab
B15: Ab5003 Fab (Fab, V domains shown)
VH: B1 VH with Q3E, N54K, K56H, K58T
VL: B1 VL
notes: Fab
B16: Ab5007 Fab (Fab, V domains shown)
VH: B1 VH with Q3E, Y53F, N54S, K56H, K58T
VL: B1 VL
notes: Fab

These results are taken from patent US20100119506A1 (published 2010).

In general, Kd refers to the constant that tells how readily two partners part at equilibrium. The low end stands for tighter binding, the high end for weaker binding. As a reminder, the EC50 is the concentration giving half of the maximal effect.

Numbering of substitutions follows the chain as printed. Bounds are passed on as bounds.

One assay addresses T1, Human PAR-2 on cells. Description: cell-based or functional assay.
For the molecule B1, the “FLIPR A549 cells IC50” value is 2.4 nM.
The same measure, in the same setting: under B2 stands 2.3 nM; under B3, 3.7 nM; under B4, 2.2 nM.
Still for that read-out and setting: under B5 stands 2.5 nM; under B6, 3.3 nM; under B7, 2.3 nM.

For another assay, the target named is labeled peptide representing the N-terminus of PAR-2 (FRET assay). Description: cell-based or functional assay.
For the molecule B1, the “FRET Peptide Cleavage IC50” value was < 30 nM.
Same read-out and setting: then B2, with < 30 nM.
B3: the “FRET Peptide Cleavage IC50” value is < 30 nM.
As for B4, the “FRET Peptide Cleavage IC50” value was < 30 nM.
On the same count and under the same terms, under B5 stands < 30 nM.
Still for that read-out and setting: then B6, with < 30 nM; and B7, with < 30 nM.
As for B8, the “FRET Peptide Cleavage IC50” value is < 30 nM.

The next assay concerns the target T2, FLAG-tagged PAR-2 over-expressed on HEK …. Description: cell-based or functional assay.
For the molecule B1, the “FLAG Cell-Based Cleavage Approx. IC50” value is < 1 nM.
On the same count and under the same terms, under B2 stands < 1 nM; under B3, < 1 nM; under B4, < 1 nM.
On the same count and under the same terms, under B5 stands < 1 nM; under B6, < 1 nM.
With B7, the “FLAG Cell-Based Cleavage Approx. IC50” value was < 1 nM.

For a further assay, the target named is T3, PAR-2 peptide (SEQ ID NO:42) coupled to …. Description: ELISA on peptide. Background: An ELISA detects its analyte on a solid surface through an enzyme-linked reagent.
With B8, the binding result is on record as “binds”.

The target in the next assay is T4, PAR-4 peptide (SEQ ID NO:44). Description: ELISA on peptide.
On to B8, for which the binding result is “no binding”.

Another assay addresses T5, Murine PAR-2 peptide. In words: Mouse PAR-2 Peptide Binding (Kinexa). As to the method:
(§1) Binding to peptide in solution was determined by Kinexa technology.
B9 came in with a Kd of 0.42 nM.

Another assay has as its target T5, Murine PAR-2 peptide. In words: Kinexa, peptide in solution. As to the method:
as §1
B10: the dissociation constant (Kd) came out at 0.03 nM.
The molecule B9 gave a dissociation constant (Kd) of 0.42 nM.

The target in another assay is T6, Cynomolgus PAR-2 peptide. Description: Kinexa, peptide in solution. As to the method:
as §1
B9 returned an equilibrium dissociation constant (Kd) of 0.14 nM.

For a further assay, the target named is T7, Human PAR-2 peptide (SEQ ID NO:1, …). Description: Kinexa, peptide in solution. As to the method: as §1
As to B10, the Kd stood at 0.03 nM.

A further assay addresses T8, Rat PAR-2 peptide. Description: Kinexa, peptide in solution. On the procedure: as §1
Take B9: the Kd worked out at 0.04 nM.

Another assay deals with T1, Human PAR-2 on cells. Description: binding of Fab to PAR-2 transfected HEK cells (HEK-PAR-2 #3).
As to B11, the EC50 was 1.9 nM.
The same measure, in the same setting: then B12, with 3.03 nM.
Same read-out and setting: under B13 stands 0.06 nM.
On the same count and under the same terms, under B14 stands 11.9 nM; under B15, 7.03 nM; under B16, 9.66 nM.

The target of another assay is T1, Human PAR-2 on cells. Description: cell binding of IgG4_Pro, HEK-PAR-2 (#3).
As to B1, the EC50 stood at 0.4 nM.
On the same count and under the same terms, then B2, with 0.3 nM; and B3, with 0.5 nM; and B4, with 0.4 nM.
On the same count and under the same terms, then B5, with 0.1 nM; and B6, with 0.7 nM.
B7 had a half-maximal effective concentration (EC50) of 0.5 nM.

The target of the next assay is T8, Rat PAR-2 peptide. In words: Rat PAR-2 Peptide Binding (Kinexa). On the procedure: as §1
As to B9, binding was put at a Kd of 0.04 nM.

In another assay the target is T1, Human PAR-2 on cells. In words: cell binding, Fab against IgG4p of the same clone.
As to B11, the “Ratio of EC50 Fab / EC50 IgG” value came to 4.8.
For B12, the “Ratio of EC50 Fab / EC50 IgG” value is 8.
Take B13: the “Ratio of EC50 Fab / EC50 IgG” value turned out to be 0.3.
The same measure, in the same setting: under B15 stands 15.3.
Still for that read-out and setting: then B16, with 19.3.

A further assay deals with T1, Human PAR-2 on cells. Description: binding of IgG4p to PAR-2 transfected HEK cells (HEK-PAR-2 #3).
For B1, the concentration for a half-maximal effect (EC50) amounted to 0.38 nM.
On the same count and under the same terms, under B3 stands 0.5 nM; under B4, 0.4 nM; under B5, 0.06 nM.
Still for that read-out and setting: under B7 stands 0.46 nM.
